From US20100278838A1, “EPHA2 MONOCLONAL ANTIBODIES AND METHODS OF USE THEREOF” (MEDIMMUNE, LLC, priority 2002, published 2010) come the findings set out here.

One experiment concerns EphA2. The experiment in a line: EphA2 tyrosine phosphorylation in MDA-MB-231 cells (immunoprecipitation, phosphotyrosine western blot). In kind it is cell-based. The conditions noted are these: MDA-MB-231 monolayers, single dose 5 μg/ml, 37° C. The procedure: FIGS. 2A-2D: EphA2 antibodies promote EphA2 tyrosine phosphorylation in MDA-MB-231 cells. Monolayers of MDA-MB-231 cells were incubated in the presence of a single dose of 5 μg/ml (A, C) Eph099B-208.261 or (B, D) EA2 for the indicated time at 37° C. Cell lysates were then immunoprecipitated with an EphA2-specific antibody, resolved by SDS-PAGE and subjected to western blot analysis with a phosphotyrosine-specific antibody (A, B). The membranes were stripped and re-probed with the EphA2-specific antibody used in the immunoprecipitation as a loading control (C, D).
EphA2, sequence (P29317 24-976): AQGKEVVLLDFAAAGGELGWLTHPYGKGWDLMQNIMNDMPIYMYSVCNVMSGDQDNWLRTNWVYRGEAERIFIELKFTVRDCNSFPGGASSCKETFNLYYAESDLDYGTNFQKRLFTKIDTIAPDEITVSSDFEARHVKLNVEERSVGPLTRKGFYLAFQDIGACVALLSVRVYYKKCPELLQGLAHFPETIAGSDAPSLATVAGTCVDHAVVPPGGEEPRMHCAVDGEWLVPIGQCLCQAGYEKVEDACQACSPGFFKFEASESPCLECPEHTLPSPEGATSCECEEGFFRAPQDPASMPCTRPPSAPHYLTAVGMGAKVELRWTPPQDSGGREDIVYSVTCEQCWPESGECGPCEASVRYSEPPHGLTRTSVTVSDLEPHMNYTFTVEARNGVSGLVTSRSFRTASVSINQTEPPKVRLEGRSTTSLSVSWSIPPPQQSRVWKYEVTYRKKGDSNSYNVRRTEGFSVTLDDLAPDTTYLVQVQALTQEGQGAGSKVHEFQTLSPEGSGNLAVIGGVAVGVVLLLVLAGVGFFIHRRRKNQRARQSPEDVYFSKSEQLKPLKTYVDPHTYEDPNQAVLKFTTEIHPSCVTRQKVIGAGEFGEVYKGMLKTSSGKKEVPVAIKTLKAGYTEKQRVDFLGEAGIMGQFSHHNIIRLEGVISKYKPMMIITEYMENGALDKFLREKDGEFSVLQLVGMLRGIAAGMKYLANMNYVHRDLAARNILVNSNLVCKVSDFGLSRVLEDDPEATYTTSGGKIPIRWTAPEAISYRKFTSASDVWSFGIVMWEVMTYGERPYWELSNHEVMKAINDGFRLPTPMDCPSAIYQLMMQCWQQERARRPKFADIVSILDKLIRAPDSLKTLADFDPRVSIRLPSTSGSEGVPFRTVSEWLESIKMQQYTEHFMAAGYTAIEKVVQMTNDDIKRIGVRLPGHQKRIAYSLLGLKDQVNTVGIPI
Monolayers of MDA-MB-231 cells were incubated in the presence of a single dose of 5 μg/ml Eph099B-233.152 at 37° C. Cell lysates were then immunoprecipitated with D7 (an EphA2-specific antibody), resolved by SDS-PAGE and subjected to western blot analysis with (A) a phosphotyrosine-specific antibody or (B) an EphA2-specific antibody.
EphA2 antibodies promoted tyrosine phosphorylation and degradation of EphA2 in MDA-MB-231 cells. Monolayers of cells were incubated in the presence of EphA2 agonistic antibodies or control at 37° C. Cell lysates were then immunoprecipitated with an EphA2-specific antibody (D7, purchased from Upstate Biologicals, Inc., Lake Placid, N.Y. and deposited with the American Type […] Collection on Dec. 8, 2000, and assigned ATCC number PTA 2755), resolved by SDS-PAGE and subjected to western blot analysis with a phosphotyrosine-specific antibody (PY20 or 4G10, purchased from Upstate Biologicals, Inc., Lake Placid, N.Y.). […] Some membranes were stripped and re-probed with the EphA2-specific antibody used in the immunoprecipitation (D7) as a loading control (FIGS. 2C-2D).
Western blot analyses and immunoprecipitations were performed as described previously (Zantek et al., 1999, Cell Growth Diff. 10:629-38, which is incorporated by reference in its entirety). […] Antibody binding was detected by enhanced chemiluminescence (Pierce, Rockford, Ill.) and autoradiography (Kodak X-OMAT; Rochester, N.Y.).
(Immunoblotting shows a protein as a band on a membrane.)

For experiment [1], the system named is MDA-MB-231 breast cancer cells implanted subcutaneously. The experiment in a line: Tumor growth and survival in vivo, MDA-MB-231 implanted subcutaneously. Also noted: species or system athymic mice. The conditions noted are these: for Growth of MDA-MB-231 cells implanted subcutaneously: 6mg/kg intraperitoneally twice a week for 3 weeks, versus PBS or 1A7. As for the experimental part: MDA-MB-231 cells were implanted subcutaneously into athymic mice. After the tumors had grown to an average volume of 100 mm^3, mice were administered 6 mg/ml Eph099B-233.152 or PBS control intraperitoneally twice a week for 3 weeks. (A) Tumor Growth. Tumor growth was assessed and expressed as a ratio of the tumor volume divided by initial tumor volume (100 mm^3). Control mice are indicated by circles and Eph099B-233.152-treated mice are indicated by squares. Arrows indicate time of Eph099B-233.152 or PBS administration. (B) Survival. Tumor growth was allowed to proceed until tumor volume reached 1000 mm^3. Survival of the mice was assessed by scoring the percent of mice living each day post treatment. Control mice are indicated by grey and Eph099B-233.152-treated mice are indicated by black.
FIGS. 7A-7D: The EphA2 antibodies, EA2, Eph099B-208.261, and Eph099B-233.152, inhibit tumor cell growth in vivo. MDA-MB-231 breast cancer cells were implanted (A) orthotopically or (B) subcutaneously into athymic mice. (C) A549 lung cancer cells were implanted subcutaneously into athymic mice. After the tumors had grown to an average volume of 100 mm^3, mice were administered 6 mg/kg of the indicated antibody or negative control (PBS or 1A7 antibody) intraperitoneally twice a week for 3 weeks. Tumor growth was assessed and expressed as a ratio of the tumor volume divided by initial tumor volume (100 mm^3). (D) MDA-MB-231 breast cancer cells were implanted subcutaneously into athymic mice. After the tumors had grown to an average volume of 100 mm^3, mice were administered 6 mg/kg of the indicated antibody or negative control intraperitoneally twice a week for 3 weeks. Total tumor volume was determined after sacrifice. Negative control is black, EA2 is white, Eph099B-208.261 is dark grey, and Eph099B-233.152 is light grey.
The ability of the antibodies of the invention to inhibit tumor cancer growth in vivo was assayed. Eph099B-233.152 can inhibit tumor cell growth in vivo and extend survival time of tumor-bearing mice. Briefly, 5×10^6 MDA-MB-231 breast cancer cells were implanted subcutaneously into athymic mice. After the tumors had grown to an average volume of 100mm^3, mice were administered 6mg/ml Eph099B-233.152 or PBS control intraperitoneally twice a week for 3 weeks. Tumor growth was assessed and expressed as a ratio of the tumor volume divided by initial tumor volume (100 mm^3). […] Tumor growth was allowed to proceed until tumor volume reached 1000 mm^3. Survival of the mice was assessed by scoring the percent of mice living each day post treatment. […] By day 36, all of the mice in the control group had died in contrast with only 70% of the mice admixture Eph099B-233.152.
5×10^6MDA-MB-231 breast cancer cells were implanted orthotopically or subcutaneously and 5×10^6 A549 lung cancer cells were implanted subcutaneously into athymic mice. After the tumors had grown to an average volume of 100 mm^3, mice were administered 6mg/kg of an EphA2 agonistic antibody or negative control (PBS or 1A7 antibody) intraperitoneally twice a week for 3 weeks. Animals were generally sacrificed at least two weeks after the last treatment or when tumors exceeded 2000 mm^3. Tumor growth was assessed and expressed either as a ratio of the tumor volume divided by initial tumor volume (100 mm^3) or as total tumor volume. Growth of MDA-MB-231 cells implanted orthotopically was inhibited by EA2 (FIG. 7A). Growth of MDA-MB-231 cells implanted subcutaneously was inhibited by EA2, Eph099B-208.261, and Eph099B-233.152 (FIG. 7B, D). Growth of A549 cells implanted subcutaneously was inhibited by EA2, or Eph099B-208.261 (FIG. 7C).

Entries after “also recorded” stand apart in the source; their conditions may differ.

B1: Eph099B-233.152: EphA2 monoclonal antibody; hybridoma ATCC PTA-5194; VL SEQ ID NO:17, VH SEQ ID NO:21 (antibody, listed as Homo sapiens, V domains shown)
VH: EVKLVESGGGLVQPGGSLSLSCAASGFTFTDYSMNWVRQPPGKALEWLGFIRNKANDYTTEYSASVKGRFTISRDNSQSILYLQMNALRAEDSATYYCVRYPRYHAMDSWGQGTSVTVSS
VL: DIVLTQSPATLSVTPGDSVNLSCRASQSISNNLHWYQQKSHESPRLLIKYVFQSISGIPSRFSGSGSGTDFTLSINSVETEDFGMYFCQQSNSWPLTFGAGTKLELK
Turning to B1, the EphA2 tyrosine phosphorylation result in the experiment on EphA2 was “increased EphA2 phosphorylation; also recorded: promotes EphA2 tyrosine phosphorylation”. Moreover, the “Growth of MDA-MB-231 cells implanted subcutaneously” value in experiment [1] is listed as “inhibited”. Further, the “Mice that had died by day 36” value in experiment [1] (6mg/ml intraperitoneally twice a week for 3 weeks, all control mice had died) turned out to be 70%. Also, in experiment [1] (6mg/ml intraperitoneally twice a week for 3 weeks, versus PBS), the “Survival of the mice (percent of mice living each day post treatment)” value is listed as “A greater percentage of mice survived at each time point examined”. The “Tumor growth (tumor volume divided by initial tumor volume)” value in experiment [1] (6mg/ml intraperitoneally twice a week for 3 weeks, versus PBS, after 30 days) is reported as “smaller tumors than mice administered PBS; also recorded: inhibits tumor cell growth in vivo”.

B2: Eph099B-208.261: EphA2 monoclonal antibody; hybridoma ATCC PTA-4573; VL SEQ ID NO:1, VH SEQ ID NO:5 (antibody, listed as Homo sapiens, V domains shown)
VH: QVQLQQPGAELVKPGASVKLSCKASGYTFTSYWMHWVKQRPGQGLEWIGMIHPNSGSTNYNEKFKSKATLTVDKSSSTAYMRLSSLTSEDSAVYYCARGGNMVGGGYWGQGTTLTVSS
VL: QIVLTQSPALMSASPGEKVTMTCSASSSVSYMYWYQQKPRSSPKPWIYLTTNLASGVPARFSGSGSGTSYSLTISSMEAEDAATYYCQQWSSNPFTFGSGTKLEIR
Turning to B2, the EphA2 tyrosine phosphorylation entry with EphA2 is reported as “increased EphA2 phosphorylation”. Besides, in experiment [1], the “Growth of MDA-MB-231 cells implanted subcutaneously” value is reported as “inhibited”.

B3: EA2: EphA2 agonistic monoclonal antibody; ATCC deposit no. PTA-4380; co-pending application Ser. No. 10/436,783; VL SEQ ID NO:33, VH SEQ ID NO:37 (antibody, listed as Homo Sapiens, V domains shown)
VH: DVKLVESGGGLVKPGGSLKLSCAASGFTFSSYTMSWVRQTPEKRLEWVATISSGGTYTYYPDSVKGRFTISRDNAKNTLYLQMSSLKSEDTAMYYCTREAIFTYWGQGTLVTVSA
VL: DIKMTQSPSSMYASLGERVTITCKASQDINNYLSWFQQKPGKSPKTLIYRANRLVDGVPSRFSGSGSGQDYSLTISSLEYEDMGIYYCLKYDEFPYTFGGGTKLEIK
On to B3, for which, in the experiment on EphA2, the EphA2 tyrosine phosphorylation result was “increased EphA2 phosphorylation”. Also, in experiment [1], the “Growth of MDA-MB-231 cells implanted subcutaneously” value was “inhibited”.
